Source: US20220144960A1 (NANJING LEGEND BIOTECH, published 2022)
Where two headings read alike, the source gives them in different places.

T1: CD30 on CD30-expressing tumor cell lines (HH, MJ, H9) (UniProt P28908 19-595)
T1 sequence (looked up): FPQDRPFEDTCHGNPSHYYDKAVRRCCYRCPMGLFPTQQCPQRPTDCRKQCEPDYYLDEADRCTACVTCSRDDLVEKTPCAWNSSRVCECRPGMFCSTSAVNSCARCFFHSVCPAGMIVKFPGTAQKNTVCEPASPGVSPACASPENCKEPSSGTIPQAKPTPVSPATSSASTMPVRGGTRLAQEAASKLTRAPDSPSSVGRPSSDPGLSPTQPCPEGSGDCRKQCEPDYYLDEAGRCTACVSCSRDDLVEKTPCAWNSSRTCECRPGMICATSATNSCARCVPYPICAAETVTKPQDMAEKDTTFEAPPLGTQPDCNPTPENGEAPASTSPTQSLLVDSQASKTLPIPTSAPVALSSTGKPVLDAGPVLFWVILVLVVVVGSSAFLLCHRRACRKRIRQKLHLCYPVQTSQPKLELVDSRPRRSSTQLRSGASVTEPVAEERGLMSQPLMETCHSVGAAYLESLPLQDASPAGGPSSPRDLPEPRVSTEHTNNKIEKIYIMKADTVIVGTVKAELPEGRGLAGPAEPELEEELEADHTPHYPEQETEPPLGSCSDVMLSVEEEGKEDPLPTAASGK

B1: AS48542dil-bbz CAR (other)
chain: QMQLVESGGGSVQAGETLRLSCTTSAFTFDGPDMAWYRQAPGNECVLVSIISADGRTYYADSVKGRFTISRDNAKNTVFLNLNSLQPEDTAVYYCALDPRKNCRGGYCCANWGPGTQVTVSSGGGGSGGGGSGGGGSQMQLVESGGGSVQAGETLRLSCTTSAFTFDGPDMAWYRQAPGNECVLVSIISADGRTYYADSVKGRFTISRDNAKNTVFLNLNSLQPEDTAVYYCALDPRKNCRGGYCCANWGPGTQVTVSSTTTPAPRPPTPAPTIASQPLSLRPEACRPAAGGAVHTRGLDFACDIYIWAPLAGTCGVLLLSLVITLYCKRGRKKLLYIFKQPFMRPVQTTQEEDGCSCRFPEEEEGGCELRVKFSRSADAPAYKQGQNQLYNELNLGRREEYDVLDKRRGRDPEMGGKPRRKNPQEGLYNELQKDKMAEAYSEIGMKGERRRGKGHDGLYQGLSTATKDTYDALHMQALPPR
B2: 5F11bbz CAR (other)
chain: DIQMTQSPTSLSASVGDRVTITCRASQGISSWLTWYQQKPEKAPKSLIYAASSLQSGVPSRFSGSGSGTDFTLTISSLQPEDFATYYCQQYDSYPITFGQGTRLEIKGSTSGSGKPGSGEGSTKGQVQLQQWGAGLLKPSETLSLTCAVYGGSFSAYYWSWIRQPPGKGLEWIGDINHGGGTNYNPSLKSRVTISVDTSKNQFSLKLNSVTAADTAVYYCASLTAYWGQGSLVTVSSTTTPAPRPPTPAPTIASQPLSLRPEACRPAAGGAVHTRGLDFACDIYIWAPLAGTCGVLLLSLVITLYCKRGRKKLLYIFKQPFMRPVQTTQEEDGCSCRFPEEEEGGCELRVKFSRSADAPAYKQGQNQLYNELNLGRREEYDVLDKRRGRDPEMGGKPRRKNPQEGLYNELQKDKMAEAYSEIGMKGERRRGKGHDGLYQGLSTATKDTYDALHMQALPPR
B3: AS48542bbz CAR (other)
chain: QMQLVESGGGSVQAGETLRLSCTTSAFTFDGPDMAWYRQAPGNECVLVSIISADGRTYYADSVKGRFTISRDNAKNTVFLNLNSLQPEDTAVYYCALDPRKNCRGGYCCANWGPGTQVTVSSTTTPAPRPPTPAPTIASQPLSLRPEACRPAAGGAVHTRGLDFACDIYIWAPLAGTCGVLLLSLVITLYCKRGRKKLLYIFKQPFMRPVQTTQEEDGCSCRFPEEEEGGCELRVKFSRSADAPAYKQGQNQLYNELNLGRREEYDVLDKRRGRDPEMGGKPRRKNPQEGLYNELQKDKMAEAYSEIGMKGERRRGKGHDGLYQGLSTATKDTYDALHMQALPPR
B4: AS48463bbz CAR (other)
chain: QVHLMESGGGSVQAGETLRLSCTASGFTFANSDMGWYRQAPGNACELVSIISSHGGTTYYVDSVKGRFTISRHNAENTVYLRMTSLKPEDTALYYCVADPRSNCRGGYCCGYWGPGTQVTVSSTTTPAPRPPTPAPTIASQPLSLRPEACRPAAGGAVHTRGLDFACDIYIWAPLAGTCGVLLLSLVITLYCKRGRKKLLYIFKQPFMRPVQTTQEEDGCSCRFPEEEEGGCELRVKFSRSADAPAYKQGQNQLYNELNLGRREEYDVLDKRRGRDPEMGGKPRRKNPQEGLYNELQKDKMAEAYSEIGMKGERRRGKGHDGLYQGLSTATKDTYDALHMQALPPR
B5: AS48481bbz CAR (other)
chain: EVQLVASGGGSVQAGETLRLSCTASGFTFADSAMGWYRKGPGNVCDLVAIIRTDGTTYYGDSAKGRFTISRDNAKSTLYLQMNSLKPEDTAVYFCAADRETSFIGGSWCVAKYWDQGTQVTVSSTTTPAPRPPTPAPTIASQPLSLRPEACRPAAGGAVHTRGLDFACDIYIWAPLAGTCGVLLLSLVITLYCKRGRKKLLYIFKQPFMRPVQTTQEEDGCSCRFPEEEEGGCELRVKFSRSADAPAYKQGQNQLYNELNLGRREEYDVLDKRRGRDPEMGGKPRRKNPQEGLYNELQKDKMAEAYSEIGMKGERRRGKGHDGLYQGLSTATKDTYDALHMQALPPR
B6: AS53574-AS48542bil-bbz CAR (other)
chain: QVKLVESGGGSVQAGGSLRLSCAASGYIYSSNCMGWFRQAPGKEREWVARIHTGSGSTYYADSVKGRFTISQDNAKNTVYLQMNSLRPEDTAMYDCAAGRVVLGAVVCTNEYWGQGTQVTVSSGGGGSGGGGSGGGGSQMQLVESGGGSVQAGETLRLSCTTSAFTFDGPDMAWYRQAPGNECVLVSIISADGRTYYADSVKGRFTISRDNAKNTVFLNLNSLQPEDTAVYYCALDPRKNCRGGYCCANWGPGTQVTVSSTTTPAPRPPTPAPTIASQPLSLRPEACRPAAGGAVHTRGLDFACDIYIWAPLAGTCGVLLLSLVITLYCKRGRKKLLYIFKQPFMRPVQTTQEEDGCSCRFPEEEEGGCELRVKFSRSADAPAYKQGQNQLYNELNLGRREEYDVLDKRRGRDPEMGGKPRRKNPQEGLYNELQKDKMAEAYSEIGMKGERRRGKGHDGLYQGLSTATKDTYDALHMQALPPR
B7: AS48542dis-bbz CAR (other)
chain: QMQLVESGGGSVQAGETLRLSCTTSAFTFDGPDMAWYRQAPGNECVLVSIISADGRTYYADSVKGRFTISRDNAKNTVFLNLNSLQPEDTAVYYCALDPRKNCRGGYCCANWGPGTQVTVSSGGGGSQMQLVESGGGSVQAGETLRLSCTTSAFTFDGPDMAWYRQAPGNECVLVSIISADGRTYYADSVKGRFTISRDNAKNTVFLNLNSLQPEDTAVYYCALDPRKNCRGGYCCANWGPGTQVTVSSTTTPAPRPPTPAPTIASQPLSLRPEACRPAAGGAVHTRGLDFACDIYIWAPLAGTCGVLLLSLVITLYCKRGRKKLLYIFKQPFMRPVQTTQEEDGCSCRFPEEEEGGCELRVKFSRSADAPAYKQGQNQLYNELNLGRREEYDVLDKRRGRDPEMGGKPRRKNPQEGLYNELQKDKMAEAYSEIGMKGERRRGKGHDGLYQGLSTATKDTYDALHMQALPPR

What was measured:
Test in all cases: cell-based or functional assay
[1] = target: T1, CD30 on CD30-expressing tumor cell …
[2] = target: T1, CD30 on CD30-expressing tumor cell …; remark: listed apart in the source
[3] = target: T1, CD30 on CD30-expressing tumor cell …; remark: listed apart in the source
[4] = target: T1, CD30 on CD30-expressing tumor cell …; remark: listed apart in the source
[5] = target: T1, CD30 on CD30-expressing tumor cell …; remark: listed apart in the source

Binder | % H9 cell lysis E:T = 5:1 (LDH assay, CAR T cells) [1] | % MJ cell lysis E:T = 1:1 (LDH assay, CAR T cells) [1] | % MJ cell lysis E:T = 0.5:1 (LDH assay, CAR T cells) [2] | further results
B1 | 84% | 64.3% | – | –
B2 | – | – | 29.9% | % H9 cell lysis E:T = 2:1 (LDH assay, CAR T cells) [3]: 45%; % MJ cell lysis E:T = 1:1 (LDH assay, CAR T cells) [3]: 41%; % H9 cell lysis E:T = 2:1 (LDH assay, CAR T cells) [4]: 45%; % MJ cell lysis E:T = 1:1 (LDH assay, CAR T cells) [4]: 41%; % H9 cell lysis E:T = 0.2:1 (FACS method, CAR T cells) [5]: 16%; % MJ cell lysis E:T = 0.2:1 (FACS method, CAR T cells) [5]: 2.3%
B3 | 64% | 58.5% | 58.4% | % H9 cell lysis E:T = 2:1 (LDH assay, CAR T cells) [3]: 50%; % MJ cell lysis E:T = 1:1 (LDH assay, CAR T cells) [3]: 55%
B4 | – | – | 60.8% | –
B5 | – | – | 45.1% | –
B6 | 54% | 60.5% | – | –
B7 | 81% | 56.4% | – | –
